Assay results published in article PMC6026696, “A broader active site in Pyrococcus horikoshii CoA disulfide reductase accommodates larger substrates and reveals evidence of subunit asymmetry” (FEBS Open Bio, 2018).

Key:
[1] = molecular target: T1, Pyrococcus horikoshii coenzyme A-disulfide reductase (phCoADR) (Pyrococcus horikoshii, UniProt O58308, C48S/Y65A/Y66A/P67G/H367G); test: anaerobic NADH titration, UV-visible spectra; type: biochemical; conditions: 50 mM potassium phosphate, pH 7.5, room temperature
T1 construct: gene PH0572; recombinant in E. coli BL21(DE3); wild type from pET24d; quad mutant codon-optimized gene in pET21b+ with C-terminal His tag; FAD-containing homodimer
T1 sequence (O58308 whole entry C48S/Y65A/Y66A/P67G/H367G): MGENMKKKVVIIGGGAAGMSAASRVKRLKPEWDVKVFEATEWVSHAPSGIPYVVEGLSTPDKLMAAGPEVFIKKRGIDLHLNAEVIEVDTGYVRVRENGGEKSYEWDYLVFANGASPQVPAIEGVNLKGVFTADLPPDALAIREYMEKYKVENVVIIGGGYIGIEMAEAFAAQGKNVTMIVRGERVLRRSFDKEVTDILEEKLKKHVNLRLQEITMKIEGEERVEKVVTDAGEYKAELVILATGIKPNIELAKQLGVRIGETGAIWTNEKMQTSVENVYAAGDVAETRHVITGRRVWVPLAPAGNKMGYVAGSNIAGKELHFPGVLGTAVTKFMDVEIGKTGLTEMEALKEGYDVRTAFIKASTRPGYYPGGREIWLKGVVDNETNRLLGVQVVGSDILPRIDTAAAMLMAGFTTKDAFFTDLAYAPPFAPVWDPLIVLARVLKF

[2] = molecular target: T2, Pyrococcus horikoshii coenzyme A-disulfide reductase (phCoADR) (Pyrococcus horikoshii, UniProt O58308, Y65A/Y66A/P67G/H367G); test: X-ray crystal structure, […] Å; type: binding; conditions: tightly bound CoA in substrate channel; mixed disulfide with C48 in oxidized enzyme (covalent)
T2 construct: gene PH0572; recombinant in E. coli BL21(DE3); wild type from pET24d; quad mutant codon-optimized gene in pET21b+ with C-terminal His tag; FAD-containing homodimer

purified protein [3] = substrate: CC(C)(COP(=O)(O)OP(=O)(O)OC[C@H]1O[C@@H](n2cnc3c(N)ncnc32)[C@H](O)[C@@H]1OP(=O)(O)O)[C@@H](O)C(=O)NCCC(=O)NCCSSCCNC(=O)CCNC(=O)[C@H](O)C(C)(C)COP(=O)(O)OP(=O)(O)OC[C@H]1O[C@@H](n2cnc3c(N)ncnc32)[C@H](O)[C@@H]1OP(=O)(O)O; test: purified protein; type: biochemical, Pyrococcus horikoshii; conditions: 100 μM NADPH, 75 °C, 50 mM potassium phosphate, pH 7.5
purified protein [4] = substrate: NC(=O)C1=CN([C@@H]2O[C@H](COP(=O)(O)OP(=O)(O)OC[C@H]3O[C@@H](n4cnc5c(N)ncnc54)[C@H](O)[C@@H]3O)[C@@H](O)[C@H]2O)C=CC1; test: purified protein; type: biochemical, Pyrococcus horikoshii; conditions: 100 μM CoA disulfide, 75 °C, 50 mM potassium phosphate, pH 7.5
purified protein [5] = substrate: NC(=O)C1=CN([C@@H]2O[C@H](COP(=O)(O)OP(=O)(O)OC[C@H]3O[C@@H](n4cnc5c(N)ncnc54)[C@H](OP(=O)(O)O)[C@@H]3O)[C@@H](O)[C@H]2O)C=CC1; test: purified protein; type: biochemical, Pyrococcus horikoshii; conditions: 100 μM CoA disulfide, 75 °C, 50 mM potassium phosphate, pH 7.5

Molecule	anaerobic NADH titration, UV-visible spectra [1]	X-ray crystal structure, 3.6 Å [2]	Km (purified protein [3]) [µM]	kcat (purified protein [3]) [s⁻¹]	Km (purified protein [4]) [µM]	kcat (purified protein [4]) [s⁻¹]	kcat (purified protein [5]) [s⁻¹]	Km (purified protein [5]) [µM]
NC(=O)C1=CN([C@@H]2O[C@H](COP(=O)(O)OP(=O)(O)OC[C@H]3O[C@@H](n4cnc5c(N)ncnc54)[C@H](O)[C@@H]3O)[C@@H](O)[C@H]2O)C=CC1 [NADH]	Anaerobic titration of the quad‐C48S mutant showed immediate reduction of FAD	–	–	–	–	–	–	–
CC(C)(COP(=O)(O)OP(=O)(O)OC[C@H]1O[C@@H](n2cnc3c(N)ncnc32)[C@H](O)[C@@H]1OP(=O)(O)O)[C@@H](O)C(=O)NCCC(=O)NCCS [CoA]	–	CoA is depicted as sticks where carbon is green, nitrogen blue, oxygen red	–	–	–	–	–	–
Pyrococcus horikoshii coenzyme A-disulfide reductase (phCoADR) (Pyrococcus horikoshii OT3) (protein, recombinant in E. coli BL21(DE3); wild type from pET24d; quad mutant codon-optimized gene in pET21b+ with C-terminal His tag; FAD-containing homodimer) MGENMKKKVVIIGGGAAGMSAASRVKRLKPEWDVKVFEATEWVSHAPCGIPYVVEGLSTPDKLMYYPPEVFIKKRGIDLHLNAEVIEVDTGYVRVRENGGEKSYEWDYLVFANGASPQVPAIEGVNLKGVFTADLPPDALAIREYMEKYKVENVVIIGGGYIGIEMAEAFAAQGKNVTMIVRGERVLRRSFDKEVTDILEEKLKKHVNLRLQEITMKIEGEERVEKVVTDAGEYKAELVILATGIKPNIELAKQLGVRIGETGAIWTNEKMQTSVENVYAAGDVAETRHVITGRRVWVPLAPAGNKMGYVAGSNIAGKELHFPGVLGTAVTKFMDVEIGKTGLTEMEALKEGYDVRTAFIKASTRPHYYPGGREIWLKGVVDNETNRLLGVQVVGSDILPRIDTAAAMLMAGFTTKDAFFTDLAYAPPFAPVWDPLIVLARVLKF	–	–	52 ± 1	4.4 ± 1.3	73 ± 12	2.3 ± 0.3	5.8 ± 0.2	–
Pyrococcus horikoshii coenzyme A-disulfide reductase (phCoADR) (Pyrococcus horikoshii OT3; H367G/P67G/Y65A/Y66A) (protein, recombinant in E. coli BL21(DE3); wild type from pET24d; quad mutant codon-optimized gene in pET21b+ with C-terminal His tag; FAD-containing homodimer) MGENMKKKVVIIGGGAAGMSAASRVKRLKPEWDVKVFEATEWVSHAPCGIPYVVEGLSTPDKLMAAGPEVFIKKRGIDLHLNAEVIEVDTGYVRVRENGGEKSYEWDYLVFANGASPQVPAIEGVNLKGVFTADLPPDALAIREYMEKYKVENVVIIGGGYIGIEMAEAFAAQGKNVTMIVRGERVLRRSFDKEVTDILEEKLKKHVNLRLQEITMKIEGEERVEKVVTDAGEYKAELVILATGIKPNIELAKQLGVRIGETGAIWTNEKMQTSVENVYAAGDVAETRHVITGRRVWVPLAPAGNKMGYVAGSNIAGKELHFPGVLGTAVTKFMDVEIGKTGLTEMEALKEGYDVRTAFIKASTRPGYYPGGREIWLKGVVDNETNRLLGVQVVGSDILPRIDTAAAMLMAGFTTKDAFFTDLAYAPPFAPVWDPLIVLARVLKF	–	–	57.0 ± 6.4	18.8 ± 2.8	75 ± 6	8.1 ± 1.4	21.6 ± 2.3	16.4 ± 4.9
